Reference: PMC5114558, “Reader domain specificity and lysine demethylase-4 family function” (Nature Communications, 2016)

T1: H3 (17-32) K23me3 peptide, fluorescein-labelled, P68431
T1 chain: RKQLATKAARKSAPAT

B1: KDM4A double tudor domain (KDM4A-DTD), HaloTag-tagged, wild type, O75164 N931D; D939R; D945R (protein)
chain: ALQSITAGQKVISKHKNGRFYQCEVVRLTTETFYEVDFDDGSFSRNLYPERIVSQDCLQFGPPAEGEVVQVRWTDGQVYGAKFVASHPIQMYQVEFEDGSQLVVKRDDVYTLDEELP
B2: KDM4A-DTD Y973A (aromatic cage substitution) (domain or fragment)
chain: ALQSITAGQKVISKHKNGRFYQCEVVRLTTETFYEVNFDDGSFSDNLYPEDIVSQDCLQFGPPAEGEVVQVRWTDGQVAGAKFVASHPIQMYQVEFEDGSQLVVKRDDVYTLDEELP
B3: KDM4A-DTD N940A (domain or fragment)
chain: ALQSITAGQKVISKHKNGRFYQCEVVRLTTETFYEVNFDDGSFSDALYPEDIVSQDCLQFGPPAEGEVVQVRWTDGQVYGAKFVASHPIQMYQVEFEDGSQLVVKRDDVYTLDEELP
B4: KDM4A-DTD N931R (domain or fragment)
chain: ALQSITAGQKVISKHKNGRFYQCEVVRLTTETFYEVRFDDGSFSDNLYPEDIVSQDCLQFGPPAEGEVVQVRWTDGQVYGAKFVASHPIQMYQVEFEDGSQLVVKRDDVYTLDEELP
B5: KDM4A-DTD N931D (domain or fragment)
chain: ALQSITAGQKVISKHKNGRFYQCEVVRLTTETFYEVDFDDGSFSDNLYPEDIVSQDCLQFGPPAEGEVVQVRWTDGQVYGAKFVASHPIQMYQVEFEDGSQLVVKRDDVYTLDEELP

Key:
[1] = target: T1, H3 (17-32) K23me3 peptide, …; assay: fluorescence polarization; details: chain shown with the change
[2] = target: H3 (17-32) K23me3 peptide, fluorescein-labelled (UniProt P68431); assay: fluorescence polarisation; fluorescein-labelled histone peptide 3 nM, KDM4 DTD titrated 0.1-100 μM; 30 mM HEPES, 150 mM NaCl pH 7.4, 0.01% Triton X-100

Binder | Kd [1] | Kd [2]
B1 | 3.1 µM | –
B2 | – | 285 µM
B3 | – | 57.4 µM
B4 | – | 73.9 µM
B5 | – | 0.85 µM
